# In the supplement of paper PMC10567573:
# Assay: protein stability index of a GFP-peptide fusion (GPS, HEK-293T) (PSI 1-6); higher = more stable
# 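Further: lentivirally expressed fusions sorted by FACS into six bins by GFP to DsRed ratio, PSI derived from sequencing read proportions per bin multiplied by bin number.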
protein,measurement,setting,value
AKQLFRKLNEQSPTRCTLEAGAMT,protein stability index,"parent: IOH3957_7, c terminus: a fixed tail appended",2.07
FPKKLAFAYLEDLHSEFDEQHGKK,protein stability index,"parent: IOH3957_14, c terminus: a fixed tail appended",2.61
FGEDYYGPSRSRHRRRSRERGPYR [CLK3 WT],protein stability index,"parent: IOH4008_14, c terminus: a fixed tail appended",2.64
RVKLISNKGTETDNDPSCVHPIIK,protein stability index,"parent: IOH4271_36, c terminus: a fixed tail appended",4.06
SRHLNSQVKKTTTRWCHIVRDSDS,protein stability index,"parent: IOH4271_53, c terminus: a fixed tail appended",2.05
KKREKQREQMEQMKQRIAEENIMK,protein stability index,"parent: IOH4655_4, c terminus: a fixed tail appended",4.67
KALEILRKDFSELRSAGVEQLMYI,protein stability index,"parent: IOH4655_39, c terminus: a fixed tail appended",2.56
HIFPASRWEPYDPEKKWDKYTIR,protein stability index,"parent: IOH4655_56, c terminus: native",2.29
YVERKNSLKKGSLVKNLKDTLGLG,protein stability index,"parent: IOH4659_10, c terminus: a fixed tail appended",2.21
YTGPSSSGRFAGREWYYGNVTRHQ,protein stability index,"parent: IOH4659_46, c terminus: a fixed tail appended",1.78
YQSKGYNDDYYEESYFTTRTYGEP [EMD WT],protein stability index,"parent: IOH4676_15, c terminus: a fixed tail appended",2.23
AAGGVPGGGSNNGKTPVCHQCHKV [PDLIM7 WT],protein stability index,"parent: IOH4706_45, c terminus: a fixed tail appended",2.61
EEEDLRRRLKYFFMSPCDKFRAKG [MCOLN1 WT],protein stability index,"parent: IOH4733_7, c terminus: a fixed tail appended",2.28
EAGGRFVAFSGEGQSLRKKGRKP [UFD1L WT],protein stability index,"parent: IOH4744_50, c terminus: native",1.91
QMAKKAEAFQLYQEAAQLDMLLEK [FLOT1 WT],protein stability index,"parent: IOH4826_57, c terminus: a fixed tail appended",1.75
THTKEQILELVVLEQFVAILPKEL,protein stability index,"parent: IOH4871_15, c terminus: a fixed tail appended",2.8
YGETCFPKGRFERKRNPSRKKQHI,protein stability index,"parent: IOH4871_39, c terminus: a fixed tail appended",2.65
LSKEYWDCLEGKKSKHAPRGTHLW,protein stability index,"parent: IOH4879_43, c terminus: a fixed tail appended",2.74
RLVYKFGKNSSGWKEEEVLQSRN,protein stability index,"parent: IOH4879_62, c terminus: native",2.04
GRKRRQTSMTDFYHSKRRLIFSKR,protein stability index,"parent: IOH5068_24, c terminus: a fixed tail appended",3.14
RRQTSMTDFYHSKRRLIFSKRKP,protein stability index,"parent: IOH5068_25, c terminus: native",2.54
FVKDPQGRIIAVFKPKNEEPYGHL [PI4K2A WT],protein stability index,"parent: IOH5080_24, c terminus: a fixed tail appended",1.76
NIVEYLIQEQPGQEQVAGGEAQPG,protein stability index,"parent: IOH5115_39, c terminus: a fixed tail appended",4.27
PCCSSSPEEPLNGESYESCCPTSR,protein stability index,"parent: IOH5115_46, c terminus: a fixed tail appended",3.71
ANETLAEMEEELRYAPLSFRNPMM,protein stability index,"parent: IOH5143_10, c terminus: a fixed tail appended",1.94
NKLLLSIIILLELAILGGLVYYKF,protein stability index,"parent: IOH5143_35, c terminus: a fixed tail appended",2.46
QTSAFARQPRDELERVRVSCTIIF,protein stability index,"parent: IOH5167_61, c terminus: a fixed tail appended",2.28
SCTIIFLASIFQLAMWTTALLHQA,protein stability index,"parent: IOH5167_64, c terminus: a fixed tail appended",2.71
ALLHQAETLQPSVWFGGREHVLMF,protein stability index,"parent: IOH5167_67, c terminus: a fixed tail appended",2.09
FGGGSTRGGSLLAGGGGFGGGSLS,protein stability index,"parent: IOH5303_3, c terminus: a fixed tail appended",1.81
SNFHINVEESVDGQVVSSHKREI,protein stability index,"parent: IOH5303_75, c terminus: native",2.11
FMEKRNQWLVSQLSAASPDTGHDS,protein stability index,"parent: IOH5394_23, c terminus: a fixed tail appended",2.4
APWNYHYHCPGSPDHQVPYGHDYP,protein stability index,"parent: IOH5394_44, c terminus: a fixed tail appended",1.94
YGHDYPRAAYQQVIQPALPGQPLP,protein stability index,"parent: IOH5394_47, c terminus: a fixed tail appended",1.96
PGQPLPGASVRGLHPVQKVILNYP,protein stability index,"parent: IOH5394_50, c terminus: a fixed tail appended",3.05
PRPPSNPPARGTLKTSNLPEELRK,protein stability index,"parent: IOH5394_64, c terminus: a fixed tail appended",4.55
KQGSMNFRFIPVLFPNAKKEHVPT,protein stability index,"parent: IOH5394_84, c terminus: a fixed tail appended",1.99
KEHVPTWLQNTHVYSWPKNKKNIL,protein stability index,"parent: IOH5394_87, c terminus: a fixed tail appended",2.59
FGPDSKSSALACTLPTLPAKVYVG,protein stability index,"parent: IOH5398_13, c terminus: a fixed tail appended",2.21
FVKILKDFPEEDDPTNWLRCYYYE,protein stability index,"parent: IOH5398_38, c terminus: a fixed tail appended",2.09
YPHCTGISQQDPESDSQGQGNGLF [FAM164C WT],protein stability index,"parent: IOH5453_15, c terminus: a fixed tail appended",3.84
SVICRSLPEGMGPGESGQPPPAC [ALKBH7 WT],protein stability index,"parent: IOH5568_34, c terminus: native",1.99
KIANLGSCNDSKLEFRSFWELIGE [S100A14 WT],protein stability index,"parent: IOH5597_12, c terminus: a fixed tail appended",2.01
VVTSAREHIYDLRSLENYHFVDEH [CLINT1 WT],protein stability index,"parent: IOH5634_17, c terminus: a fixed tail appended",2.76
DPQSGELPSERWNPTQNVRTILLS [UBE2R2 WT],protein stability index,"parent: IOH5652_18, c terminus: a fixed tail appended",3.45
MNLHVYISEHEHFTDFNATSALFW,protein stability index,"parent: IOH5653_18, c terminus: a fixed tail appended",2.74
LGCYAVYSLLYLEHKGWYSWVLSM,protein stability index,"parent: IOH5653_82, c terminus: a fixed tail appended",2.95
RETASLKLLPHQPRIVEMKKGSNG,protein stability index,"parent: IOH5807_39, c terminus: a fixed tail appended",3.37
FQAKKIPIVSSLADPLDTPPDSKE,protein stability index,"parent: IOH5807_78, c terminus: a fixed tail appended",3.78
QLIDPDENKENEAFEFKKPVRPVS,protein stability index,"parent: IOH5852_23, c terminus: a fixed tail appended",3.49
TVAGKHQDLKYISPEIMASVLNGK,protein stability index,"parent: IOH5852_59, c terminus: a fixed tail appended",3.04
KPIVPTDGKRVIVVFHCEFSSERG,protein stability index,"parent: IOH5852_70, c terminus: a fixed tail appended",2.59
KKFRTKSRTWAGEKSKREMYSRLK,protein stability index,"parent: IOH5852_84, c terminus: a fixed tail appended",2.82
